Test results reported in publication PMC3568127.

Molecular target: NRP1 (neuropilin 1) expressed from an adenovirus on DU145 cells (UniProt O14786)
Test: cell based binding displacement assay (biotinylated ligand, streptavidin-HRP, A450); DU145 cells infected with Ad.NRP1 in 96-well plates; various concentrations of competitor then 1 nM bt-VEGF-A165; binding medium with or without 0.1% BSA; 2 h at room temperature; apparent affinity judged by IC50

Chain of NRP1 (neuropilin 1) expressed from an adenovirus on DU145 cells (O14786 22-923): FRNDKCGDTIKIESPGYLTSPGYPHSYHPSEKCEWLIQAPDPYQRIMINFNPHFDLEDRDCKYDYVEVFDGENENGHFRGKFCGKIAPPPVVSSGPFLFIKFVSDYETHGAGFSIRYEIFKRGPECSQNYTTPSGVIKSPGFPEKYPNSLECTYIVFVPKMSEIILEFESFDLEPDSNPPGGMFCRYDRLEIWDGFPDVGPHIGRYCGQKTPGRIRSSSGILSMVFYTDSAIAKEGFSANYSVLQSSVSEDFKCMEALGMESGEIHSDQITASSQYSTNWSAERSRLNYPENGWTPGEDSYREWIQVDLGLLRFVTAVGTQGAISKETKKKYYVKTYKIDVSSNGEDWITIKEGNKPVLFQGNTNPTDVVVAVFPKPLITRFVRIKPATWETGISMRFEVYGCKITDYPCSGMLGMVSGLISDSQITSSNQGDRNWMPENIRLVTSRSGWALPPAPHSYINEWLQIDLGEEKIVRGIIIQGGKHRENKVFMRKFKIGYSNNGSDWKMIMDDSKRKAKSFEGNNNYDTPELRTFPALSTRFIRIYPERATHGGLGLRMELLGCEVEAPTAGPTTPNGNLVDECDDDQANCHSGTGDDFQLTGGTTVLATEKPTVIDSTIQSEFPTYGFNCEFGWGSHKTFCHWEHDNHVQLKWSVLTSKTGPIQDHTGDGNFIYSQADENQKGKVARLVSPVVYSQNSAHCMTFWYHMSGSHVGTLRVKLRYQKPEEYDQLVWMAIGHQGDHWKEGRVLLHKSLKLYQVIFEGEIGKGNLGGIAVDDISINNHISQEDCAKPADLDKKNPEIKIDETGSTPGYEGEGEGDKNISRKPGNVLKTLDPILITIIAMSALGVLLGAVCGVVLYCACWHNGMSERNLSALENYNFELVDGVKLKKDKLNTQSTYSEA

Substance: VEGF-A165-HBD (the forms of the cell based assay: with and without the His6-tag)
- IC50: 100 to 200 nM
